# “And” between values parts separate entries of the source, which are not always exact repeats. Equal entries are not always repeated. Square brackets hold non-standard residues; d marks the D form. Ends that are not written are not given here.
# Target: Tau40 P301L protein (human)
# Assay: cell-based or functional assay
row,Binder,"IC50, Tau40 assay (ThT)"
1,[dF][dH][dL][dE][dI][dR][dH][dW] [fhleirhw],6.87 µM
2,[dF][dR][dL][dK][dI][dR][dW] [frlkirw],11.7 µM and 12.2 µM
3,[dA][dR][dA][dR][dI][dH][dW] [ararihw],12.6 µM
4,[dI][dH][dY][dH][dL][dK][dI][dR] [ihyhlkir],9.7 µM
5,[dL][dK][dI][dR][dI][dH][dA][dH] [lkirihah],6.41 µM
6,[dE][dL][dK][dI][dV][dW] [elkivw],16 µM and 16.6 µM
7,[dE][dR][dL][dR][dI][dH][dW] [erlrihw],9.9 µM
8,[dF][dE][dL][dE][dI][dE][dW][dH] [feleiewh],14.3 µM and 19.5 µM
9,[dI][dR][dI][dH][dY][dH][dL][dK] [irihyhlk],7.39 µM
10,[dL][dK][dI][dR][dI][dE][dY][dH] [lkirieyh],8.14 µM
11,[dE][dK][dI][dR][dI][dH][dY][dH] [ekirihyh],7.42 µM
12,[dK][dL][dK][dI][dK][dW] [klkikw],6.87 µM
13,[dF][dK][dL][dK][dL][dW][dW][dF] [fklklwwf],7.22 µM and 15 µM
14,[dF][dK][dL][dH][dL][dK][dH][dY] [fklhlkhy],7.19 µM and 7.53 µM
15,[dI][dL][dK][dI][dV][dW] [ilkivw],9.32 µM
16,[dF][dR][dL][dR][dI][dW][dW][dF] [frlriwwf],6.85 µM and 10.8 µM
17,[dK][dL][dK][dI][dV][dW] [klkivw],6.9 µM
18,[dL][dK][dT][dR][dI][dH][dY] [lktrihy],12.5 µM
19,[dF][dH][dI][dE][dI][dR][dH][dF] [fhieirhf],6.06 µM
20,[dF][dE][dL][dR][dI][dK][dH][dY] [felrikhy],6.57 µM and 12 µM
21,[dA][dR][dL][dK][dA][dR][dW] [arlkarw],11.2 µM
22,[dL][dK][dA][dR][dI][dH][dY][dH] [lkarihyh],10.4 µM
23,[dF][dK][dI][dE][dI][dE][dY][dH] [fkieieyh],10.3 µM
24,[dL][dK][dR][dR][dI][dH][dY][dH] [lkrrihyh],15.4 µM
25,[dF][dW][dL][dR][dI][dH][dW][dF] [fwlrihwf],7.28 µM and 7.56 µM
26,[dA][dW][dA][dK][dV][dR][dW] [awakvrw],8.38 µM

# Now from value to binder:
row,"IC50, Tau40 assay (ThT)",Binder
1,6.67 µM,[dW][dR][dL][dK][dV][dE][dW] [wrlkvew]
2,10 µM,[dW][dE][dL][dK][dV][dE][dW] [welkvew]
3,15.1 µM,[dW][dR][dL][dK][dV] [wrlkv]
4,6.72 µM,[dV][dK][dV][dW]G[dR][dL][dW] (not fully specified (residue 5); printed as vkvwgrlw) [vkvwgrlw]
5,8.08 µM,[dT][dL][dK][dI][dE][dW] [tlkiew]
6,8.93 µM,[dW][dR][dT][dK][dT][dR][dW] [wrtktrw]
7,13.7 µM and 14.3 µM,[dT][dI][dK][dL][dV][dW] [tiklvw]
8,6.87 µM,[dR][dL][dR][dI][dH][dW] [rlrihw]
9,7.64 µM,[dW][dW][dL][dK][dL][dR][dW][dW] [wwlklrww]
10,6.53 µM and 7 µM,[dW][dR][dF][dH][dI][dH][dF][dY] [wrfhihfy]
11,6.86 µM,[dW][dR][dV][dH][dF][dE][dH][dW] [wrvhfehw]
12,6.97 µM,[dW][dI][dK][dI][dV][dR] [wikivr]
13,7.46 µM,[dT][dW][dR][dL][dV][dL] [twrlvl]
14,6.3 µM,[dY][dR][dI][dR][dL][dE][dH][dV] [yrirlehv]
15,6.97 µM,[dR][dI][dR][dL][dH][dW] [rirlhw]
16,10.4 µM and 10.6 µM,[dW][dK][dV][dW]G[dK][dV][dW] (not fully specified (residue 5); printed as wkvwgkvw) [wkvwgkvw]
17,8.33 µM and 10.1 µM,[dW][dD][dL][dR][dL][dQ][dY][dW] [wdlrlqyw]

row,"IC50, Tau40 assay (ThT)",Binder
1,7.01 µM,[dR][dL][dK][dV][dW][dW] [rlkvww]
2,6.5 µM,[dY][dR][dI][dR][dI][dN][dH][dL] [yririnhl]
3,8.02 µM,[dR][dL][dW][dV][dR][dW] [rlwvrw]
4,7.92 µM,[dW][dE][dL][dK][dV][dR][dW] [welkvrw]
5,6.63 µM,[dR][dI][dH][dY][dH][dL][dK][dI] [rihyhlki]
6,6.46 µM,[dW][dR][dL][dL][dV][dR][dW][dW] [wrllvrww]
7,12.7 µM,[dW][dR][dA][dK][dA][dR][dW] [wrakarw]
8,18.5 µM,[dW][dR][dL][dK][dV][dR] [wrlkvr]
9,10 µM,[dW][dR][dL][dR][dI][dH][dE] [wrlrihe]
10,8.42 µM and 14.1 µM,[dW][dK][dV][dW]G[dR][dV][dW] (not fully specified (residue 5); printed as wkvwgrvw) [wkvwgrvw]
11,6.48 µM,[dL][dK][dV][dR][dW][dW] [lkvrww]
12,9.91 µM and 10.8 µM,[dW][dK][dL][dK][dL][dW][dW][dW] [wklklwww]
13,8.71 µM,[dW][dF][dL][dR][dI][dH][dW] [wflrihw]
14,6.39 µM,[dW][dH][dV][dR][dL][dN][dH][dL] [whvrlnhl]
15,11.7 µM,[dW][dE][dV][dQ][dV][dE][dW] [wevqvew]
16,6.57 µM,[dW][dQ][dL][dQ][dV][dR][dW] [wqlqvrw]
17,14 µM,[dW][dD][dL][dD][dV][dR][dW] [wdldvrw]
